Source: the supplement of paper PMC10126150
± gives the standard deviation of the averaged measurements.

Test system: ATP
Assay: switch fluorescence ratio, 500 uM ATP over buffer (Cy3 cluster intensity, sum of 5 cycles each) (fold (ratio)); higher = stronger signal-on switching upon ATP binding; sequences stand for … in TCGTCGGCAGCGTCAGATGTGTATAAGAGACAGTTTTTTTTTTTTTTTTTTTTTTTTT…TC
Conditions: aptamer strand: ATP DNA aptamer (quencher-CACCTGGGGGAGTATTGCGGAGGAAGG + anchor), 100 nM annealed; ATP concentration: 500 uM
Method in brief: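 The quencher-labelled ATP aptamer, at 100 nM, was annealed to Cy3-labelled switching-strand clusters on a modified Illumina MiSeq flow-cell. The clusters were imaged in selection buffer, then after 15 min with 500 uM ATP at 22 °C, and this buffer/ATP cycle ran five times with NaOH stripping and re-annealing between runs. Per-cluster fluorescence ratios, summed target-cycle over summed buffer-cycle Cy3 intensity, were averaged per switch-domain sequence. Clusters outside 100-1000 RFU were excluded.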
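Further: ATP exposure 15 min at 22 °C before imaging.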

Row | Sequence | switch fluorescence ratio
1 | TTTTGGAATA | 1.02 ± 0.059
2 | TTTTGGAGGG | 1.01 ± 0.034
3 | TTTTGGCCAG | 0.991 ± 0.061
4 | TTTTGGCCTG | 1.02 ± 0.038
5 | TTTTGGCTAA | 1.01 ± 0.022
6 | TTTTGGCTGG | 1.01 ± 0.052
7 | TTTTGGCTGT | 1.09 ± 0.25
8 | TTTTGGGA | 1.01 ± 0.064
9 | TTTTGGGAAT | 1.04 ± 0.052
10 | TTTTGGGCCT | 1.042 ± 0.0088
11 | TTTTGGGTTC | 1.03 ± 0.07
12 | TTTTGGGTTT | 1.02 ± 0.086
13 | TTTTGGTCTG | 1.01 ± 0.031
14 | TTTTGGTTAC | 1.04 ± 0.055
15 | TTTTGGTTGA | 0.977 ± 0.025
16 | TTTTGGTTTT | 1 ± 0.039
17 | TTTTGTAATG | 0.991 ± 0.035
18 | TTTTGTAGCA | 1.1 ± 0.03
19 | TTTTGTATGG | 0.9893 ± 0.0079
20 | TTTTGTATTG | 0.98 ± 0.024
21 | TTTTGTCAGG | 0.993 ± 0.0079
22 | TTTTGTGATT | 0.984 ± 0.013
23 | TTTTGTGGGG | 0.999 ± 0.037

Row | Sequence | switch fluorescence ratio
24 | TTTTGTGTTG | 0.996 ± 0.013
25 | TTTTGTTAAA | 1.01 ± 0.028
26 | TTTTGTTACA | 1.011 ± 0.0029
27 | TTTTGTTAGG | 0.98 ± 0.01
28 | TTTTGTTGCA | 1.038 ± 0.0056
29 | TTTTGTTTAC | 1.01 ± 0.028
30 | TTTTGTTTGC | 1.02 ± 0.03
31 | TTTTTAAAAG | 0.988 ± 0.011
32 | TTTTTAAACT | 0.9921 ± 0.0076
33 | TTTTTAAATT | 0.997 ± 0.025
34 | TTTTTAACAC | 1.02 ± 0.021
35 | TTTTTAACGC | 1.3 ± 0.29
36 | TTTTTAAGAT | 0.995 ± 0.035
37 | TTTTTAAGGG | 0.996 ± 0.032
38 | TTTTTACATT | 0.99 ± 0.032
39 | TTTTTACTAG | 1.007 ± 0.0023
40 | TTTTTACTTT | 1.05 ± 0.17
41 | TTTTTAGGGT | 1 ± 0.073
42 | TTTTTAGGTA | 0.992 ± 0.017
43 | TTTTTAGTCG | 1 ± 0.036
44 | TTTTTAGTGT | 1.01 ± 0.035
45 | TTTTTAGTTT | 0.987 ± 0.028
46 | TTTTTATACT | 1.02 ± 0.027

Row | Sequence | switch fluorescence ratio
47 | TTTTTATAGG | 1.008 ± 0.0041
48 | TTTTTATTA | 1.001 ± 0.0052
49 | TTTTTATTTG | 0.995 ± 0.05
50 | TTTTTCAAAA | 1.029 ± 0.0063
51 | TTTTTCACGA | 1.03 ± 0.019
52 | TTTTTCACGG | 0.999 ± 0.034
53 | TTTTTCACGT | 1.02 ± 0.029
54 | TTTTTCACTG | 1 ± 0.052
55 | TTTTTCAGCA | 1.04 ± 0.029
56 | TTTTTCAGCT | 1.02 ± 0.012
57 | TTTTTCATAT | 1.08 ± 0.2
58 | TTTTTCATCA | 0.982 ± 0.036
59 | TTTTTCATGG | 1 ± 0.031
60 | TTTTTCCAAG | 1.02 ± 0.011
61 | TTTTTCCCCG | 1.33 ± 0.6
62 | TTTTTCCGCG | 1.128 ± 0.0084
63 | TTTTTCCTGA | 1.02 ± 0.011
64 | TTTTTCGCCT | 1.01 ± 0.029
65 | TTTTTCGCGG | 1.01 ± 0.015
66 | TTTTTCGCTG | 1.03 ± 0.022
67 | TTTTTCGGCG | 1.01 ± 0.029
68 | TTTTTCGGG | 0.996 ± 0.014
69 | TTTTTCGGGA | 1 ± 0.023

Row | Sequence | switch fluorescence ratio
70 | TTTTTCGGTG | 1.04 ± 0.11
71 | TTTTTCGTAA | 1.04 ± 0.061
72 | TTTTTCGTGA | 1.13 ± 0.15
73 | TTTTTCTAAG | 1.014 ± 0.007
74 | TTTTTCTAAT | 1.03 ± 0.071
75 | TTTTTCTGGT | 1.01 ± 0.075
76 | TTTTTGACGG | 1 ± 0.033
77 | TTTTTGATAA | 0.9683 ± 0.0063
78 | TTTTTGCAAT | 1.43 ± 0.24
79 | TTTTTGCTAT | 1.06 ± 0.062
80 | TTTTTGGACT | 0.983 ± 0.012
81 | TTTTTGGCAA | 2.35 ± 2.2
82 | TTTTTGGCAG | 0.971 ± 0.024
83 | TTTTTGGGAT | 1.01 ± 0.031
84 | TTTTTGGGCC | 0.994 ± 0.017
85 | TTTTTGGGGG | 0.997 ± 0.035
86 | TTTTTGGGGT | 0.999 ± 0.034
87 | TTTTTGGGTA | 0.973 ± 0.027
88 | TTTTTGGTGA | 0.984 ± 0.013
89 | TTTTTGTAAA | 0.9936 ± 0.003
90 | TTTTTGTAT | 0.979 ± 0.015
91 | TTTTTGTGTT | 1 ± 0.025
92 | TTTTTGTTCT | 0.996 ± 0.024

Row | Sequence | switch fluorescence ratio
93 | TTTTTGTTTC | 1.02 ± 0.046
94 | TTTTTTAAGA | 1.01 ± 0.025
95 | TTTTTTATCG | 1 ± 0.031
96 | TTTTTTCAAG | 0.978 ± 0.019
97 | TTTTTTCAGC | 1 ± 0.048
98 | TTTTTTCATC | 1.031 ± 0.0078
99 | TTTTTTCGAT | 0.995 ± 0.047
100 | TTTTTTCGGG | 0.993 ± 0.023
101 | TTTTTTGAAT | 0.995 ± 0.027
102 | TTTTTTGGCA | 0.982 ± 0.035
103 | TTTTTTGGTG | 1.02 ± 0.036
104 | TTTTTTGTGC | 0.9901 ± 0.0052
105 | TTTTTTGTTA | 1 ± 0.024
106 | TTTTTTTACA | 0.998 ± 0.01
107 | TTTTTTTCCT | 1.02 ± 0.066
108 | TTTTTTTGGA | 0.976 ± 0.021
109 | TTTTTTTGGC | 1.02 ± 0.029
110 | TTTTTTTGGG | 1 ± 0.036
111 | TTTTTTTTAC | 1.04 ± 0.029
112 | TTTTTTTTCG | 1.05 ± 0.12
113 | TTTTTTTTG | 0.987 ± 0.019
114 | TTTTTTTTGC | 1.02 ± 0.092
115 | TTTTTTTTTA | 1.01 ± 0.022
